T1: human MUC16 protein (ECT_TM huMuc16) on 293T cells (human)
T1 chain: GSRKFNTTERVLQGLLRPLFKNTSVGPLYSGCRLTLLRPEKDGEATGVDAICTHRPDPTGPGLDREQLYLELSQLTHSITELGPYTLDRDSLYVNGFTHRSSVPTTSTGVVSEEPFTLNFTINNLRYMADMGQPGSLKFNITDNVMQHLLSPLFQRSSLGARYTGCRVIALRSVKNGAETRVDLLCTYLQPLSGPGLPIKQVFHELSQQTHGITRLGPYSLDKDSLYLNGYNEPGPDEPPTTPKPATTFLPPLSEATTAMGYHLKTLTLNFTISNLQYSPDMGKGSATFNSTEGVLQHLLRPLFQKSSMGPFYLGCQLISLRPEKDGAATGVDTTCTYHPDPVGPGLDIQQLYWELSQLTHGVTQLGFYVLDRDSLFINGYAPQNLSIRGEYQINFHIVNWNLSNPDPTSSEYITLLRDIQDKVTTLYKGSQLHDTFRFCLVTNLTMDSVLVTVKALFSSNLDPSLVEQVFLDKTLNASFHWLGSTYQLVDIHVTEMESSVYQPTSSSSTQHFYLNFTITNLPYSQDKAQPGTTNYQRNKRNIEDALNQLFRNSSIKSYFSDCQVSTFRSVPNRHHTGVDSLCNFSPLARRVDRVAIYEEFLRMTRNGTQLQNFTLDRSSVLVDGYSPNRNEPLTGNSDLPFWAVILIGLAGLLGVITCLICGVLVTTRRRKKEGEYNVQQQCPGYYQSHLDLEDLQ

T2: rhesus monkey MUC16 protein (ECT_TM RhMuc16) on 293T cells (rhesus monkey)
T2 chain: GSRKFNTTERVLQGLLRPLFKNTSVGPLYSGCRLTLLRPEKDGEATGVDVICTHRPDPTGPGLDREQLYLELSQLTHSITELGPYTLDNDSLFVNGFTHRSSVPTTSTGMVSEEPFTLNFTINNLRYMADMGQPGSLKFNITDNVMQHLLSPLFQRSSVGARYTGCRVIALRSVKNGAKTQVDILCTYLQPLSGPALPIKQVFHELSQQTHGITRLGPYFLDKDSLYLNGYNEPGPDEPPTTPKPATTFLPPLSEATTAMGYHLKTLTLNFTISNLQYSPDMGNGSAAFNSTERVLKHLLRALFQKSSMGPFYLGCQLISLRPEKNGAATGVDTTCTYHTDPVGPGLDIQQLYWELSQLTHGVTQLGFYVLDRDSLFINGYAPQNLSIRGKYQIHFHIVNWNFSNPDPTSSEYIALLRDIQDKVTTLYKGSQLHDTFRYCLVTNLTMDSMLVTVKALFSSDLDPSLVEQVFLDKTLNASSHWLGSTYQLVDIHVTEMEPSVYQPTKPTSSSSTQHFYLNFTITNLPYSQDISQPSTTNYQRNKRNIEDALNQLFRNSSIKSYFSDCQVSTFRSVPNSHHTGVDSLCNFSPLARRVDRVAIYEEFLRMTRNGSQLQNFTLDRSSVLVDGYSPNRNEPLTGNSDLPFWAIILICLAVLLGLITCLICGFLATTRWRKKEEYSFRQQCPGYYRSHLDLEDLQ

B1: anti-MUC16 antibody 776.1(C33S) (antibody, human IgG1, kappa, L234A L235A, V domains shown)
VH: EVQLQQSGPELVKPGASVKISCKASGYTFTDYNIHWVKQSHGKILEWIGYIYPYNGVSDYNQNFKSKATLIVDNSSNTAYMELRSLTSEDSAVYYCARWDFGSGYYFDYWGQGTTLTVSS
VL: QIVLSQSPAILFASPGETVTMTCRASSSVIYMSWNQQKPGSSPKPWIYGTSTLASGVPTRFSGSGSGTSYSLTISRVEAEDAATYYCQQWSSNPFTFGSGTKLEIKR
B2: anti-CD3/MUC16 bispecific antibody MCH7-23L2-MCH7 (bispecific antibody, human IgG1, kappa, L234A L235A)
heavy 1: QVQLVQSGAEVKKPGASVKVSCKASGYTFTDYNIHWVRQAPGQGLEWMGYIYPYNGVSDYNQNFKSRVTMTTDTSTSTAYMELRSLRSDDTAVYYCARWDFGSGYYFDYWGQGTLVTVSSASTKGPSVFPLAPSSKSTSGGTAALGCLVKDYFPEPVTVSWNSGALTSGVHTFPAVLQSSGLYSLSSVVTVPSSSLGTQTYICNVNHKPSNTKVDKKVEPKSCEVQLVESGGGLVQPGGSLKLSCAASGFTFSTYAMNWVRQAPGKGLEWVGRIRSKYNNYATYYADSVKDRFTISRDDSKNTLYLQMNSLKTEDTAVYYCTRHGNFGNSYVSWFAYWGQGTTVTVSSGGGGSGGGGSGGGGSQAVVTQEPSLTVSPGGTVTLTCRSSTGAVTTSNYANWVQQKPGQAPRGLIGGTNKRAPGVPARFSGSLLGGKAALTLSGAQPEDEAEYFCALWYSNLWVFGGGTKLTVLGEPKSSDKTHTCPPCPAPEAAGGPSVFLFPPKPKDTLMISRTPEVTCVVVAVSHEDPEVKFNWYVDGVEVHNAKTKPREEQYNSTYRVVSVLTVLHQDWLNGKEYKCKVSNKALAAPIEKTISKAKGQPREPQVCTLPPSRDELTKNQVSLSCAVKGFYPSDIAVEWESNGQPENNYKTTPPVLDSDGSFFLVSKLTVDKSRWQQGNVFSCSVMHEALHNHYTQKSLSLSPGK
heavy 2: not shown
light: EIVLTQSPATLSLSPGERATLSCRASSSVIYMSWYQQKPGQAPRLLIYGTSTLASGIPARFSGSGSGTDFTLTISSLEPEDFAVYYCQQWSSNPFTFGQGTKLEIKRTVAAPSVFIFPPSDEQLKSGTASVVCLLNNFYPREAKVQWKVDNALQSGNSQESVTEQDSKDSTYSLSSTLTLSKADYEKHKVYACEVTHQGLSSPVTKSFNRGEC
notes: MCH7-23L2ScFv-Hole (VH-CH1-scFv-Fc) + MCH7-KIH-Knob + two light chains MCL4 LC
B3: humanized anti-MUC16 antibody Hu-L4H7 (antibody, human IgG1, kappa, L234A L235A, V domains shown)
VH: QVQLVQSGAEVKKPGASVKVSCKASGYTFTDYNIHWVRQAPGQGLEWMGYIYPYNGVSDYNQNFKSRVTMTTDTSTSTAYMELRSLRSDDTAVYYCARWDFGSGYYFDYWGQGTLVTVSS
VL: EIVLTQSPATLSLSPGERATLSCRASSSVIYMSWYQQKPGQAPRLLIYGTSTLASGIPARFSGSGSGTDFTLTISSLEPEDFAVYYCQQWSSNPFTFGQGTKLEIKR
notes: human IgG1 with L234A, L235A, D265A, P329A and kappa; Biotinylated in the CA125 ELISA; also called humanized MUC-16 antibody

How the values were obtained:
[1] = target: T1, human MUC16 protein (ECT_TM huMuc16) on …; experiment: cell binding on 293T/hMUC16 cells, read as MFI (the legend calls it ELISA); EC50 table under the plot, unit from the axis Conc.(nM)
[2] = target: T2, rhesus monkey MUC16 protein (ECT_TM …); experiment: flow cytometry, 293T/rhesus MUC16 cells as printed on the sheet and in the legend (the example, paragraph 611, speaks of cynomolgus MUC16), PE anti-human IgG Fc secondary, MFI; EC50 table under the plot, unit from the axis Conc.(nM); curve still rising at the top concentration of 100 nM
Procedure: Referring to the flow cytometry described above, the serially diluted test bispecific antibody (at an initial concentration of 100 nM, 5-fold dilution, 9 points) was added to the cells, and the plate was incubated at 4° C. for 30 min. The cells were washed twice with PBS, and then fluorescent secondary antibody R-PE-conjugated AffiniPure Goat Anti-Human IgG, Fcγ Fragment Specific was added. The cells were incubated at 4° C. for 30 min. The cells were washed twice with PBS and then resuspended, and finally, fluorescence signals were detected using a BD Accuri C5 (BD Bioscience) flow cytometer.

[3] = target: T3, human MUC16 protein endogenously expressed on cells (human, UniProt Q8WXI7 1-14507); experiment: flow cytometry, OVCAR3 cells (endogenous human MUC16), PE anti-human IgG Fc secondary, MFI; EC50 table under the plot, unit from the axis Conc.(nM)
T3 construct: whole, on cells; also called MUC16 on OVCAR3 cells; MUC16 in ovarian carcinoma tissue
Procedure: (1) Whether the anti-CD3/anti-MUC16 bispecific antibodies in the present invention could bind to the MUC16 protein endogenously expressed on human ovarian carcinoma cells (OVCAR3) (Cell Bank of Type Culture Collection Committee of the Chinese Academy of Sciences, Cat #TCHu228) was determined by cell binding experiments.
The experiments were performed using flow cytometry. OVCAR3 cells were digested, centrifuged and collected. The cells were resuspended in a PBS solution, and seeded into a 96-well plate (Corning, Cat #3799) at 1×10⁵ cells/well. The 96-well plate was centrifuged and then the supernatant was discarded. 100 μL of the serially diluted test bispecific antibody (at a maximum concentration of 200 nM, 5-fold dilution from 100 nM, 9 concentration points in total) was added to the OVCAR3 cells. The plate was incubated at 4° C. for 30 min and centrifuged (1000 rpm, 5 min), and then the supernatant was discarded. 100 μL of PBS solution was added to each well, and the cells were washed twice. 100 μL of fluorescent secondary antibody R-PE-conjugated AffiniPure Goat Anti-Human IgG, Fcγ Fragment Specific (Jackson ImmunoResearch, Cat #109-116-098) diluted in a ratio of 1:200 was then added. The cells were incubated at 4° C. for 30 min. After the cells were washed twice with the PBS solution, 100 μL of PBS solution was added to each well to resuspend the cells, and finally, fluorescence signals were detected using a BD Accuri C5 (BD Bioscience) flow cytometer according to the manufacturer's instructions. REGN4018 was used as a positive control.

EC50 [1] [nM]	EC50 [2] [nM]	EC50 [3] [nM]	Binder
6.67	–	–	B1
–	52.2	4.21	B2
2.28	59.4	2.73	B3
